In patent publication US20110008376A1 one finds Bmax, Kd and Normalized affinity, kD (%) data, which are given here for 2 substances.

For orientation: Kd means the free concentration of one partner at which half of the binding sites on the other are occupied at equilibrium, for simple one-to-one binding. Read a low Kd as a tighter complex.

In assay [1] the target is cdH5-0 (dH5-0 supernatant after 10 min at 16,000-18,000*g) (influenza A virus H5N1 strain A/Vietnam/1203/04). As to the kind of experiment: ELISA, immobilized H5 form, excess epsilon-amino caproic acid.
The target in assay [2] is fdH5-0 (ultrafiltrated dH5-0, flow-through of a 1,000 kDa cut-off filter) (influenza A virus H5N1 strain A/Vietnam/1203/04). The assay is described as above.
The target of assay [3] is dH5-0 (hemagglutinin 5 of H5N1 strain A/Vietnam/1203/04 as supplied by Protein Sciences) (influenza A virus H5N1 strain A/Vietnam/1203/04). The description is as above.
Assay [4] deals with dH5-II (misfolded H5, heat cycling at pH 2) (influenza A virus H5N1 strain A/Vietnam/1203/04). The description is as above.
Assay [5] concerns the target dH5-0 (hemagglutinin 5 of H5N1 strain A/Vietnam/1203/04 as supplied by Protein Sciences) (influenza A virus H5N1 strain A/Vietnam/1203/04). The experiment in a line: ELISA, immobilized H5 form, normalized to cdH5-0; average of two measurements. (In general: ELISA stands for enzyme-linked immunosorbent assay.)
In assay [6] the target is nOVA (untreated ovalbumin, 1 mg/ml in PBS) (chicken) (UniProt P01012). The experiment in a line: ELISA, immobilized OVA form, normalized to nOVA.
For assay [7], the target named is cdH5-0 (dH5-0 supernatant after 10 min at 16,000-18,000*g) (influenza A virus H5N1 strain A/Vietnam/1203/04). As to the kind of experiment: ELISA, immobilized H5 form, normalized to cdH5-0.
Assay [8] has as its target dH5-I (misfolded H5, heat cycling at pH 7) (influenza A virus H5N1 strain A/Vietnam/1203/04). As to the kind of experiment: ELISA, immobilized H5 form, normalized to cdH5-0.
The target in assay [9] is dH5-III (misfolded H5, about 16 h at 47.5 C) (influenza A virus H5N1 strain A/Vietnam/1203/04). The experiment in a line: ELISA, immobilized H5 form, normalized to cdH5-0.
For assay [10], the target named is fdH5-0 (ultrafiltrated dH5-0, flow-through of a 1,000 kDa cut-off filter) (influenza A virus H5N1 strain A/Vietnam/1203/04). As to the kind of experiment: ELISA, immobilized H5 form, normalized to cdH5-0.
The target in assay [11] is dH5-II (misfolded H5, heat cycling at pH 2) (influenza A virus H5N1 strain A/Vietnam/1203/04). As to the kind of experiment: ELISA, immobilized H5 form, normalized to cdH5-0.

Sequence of UniProt P01012 (P01012 2-386 limits assumed): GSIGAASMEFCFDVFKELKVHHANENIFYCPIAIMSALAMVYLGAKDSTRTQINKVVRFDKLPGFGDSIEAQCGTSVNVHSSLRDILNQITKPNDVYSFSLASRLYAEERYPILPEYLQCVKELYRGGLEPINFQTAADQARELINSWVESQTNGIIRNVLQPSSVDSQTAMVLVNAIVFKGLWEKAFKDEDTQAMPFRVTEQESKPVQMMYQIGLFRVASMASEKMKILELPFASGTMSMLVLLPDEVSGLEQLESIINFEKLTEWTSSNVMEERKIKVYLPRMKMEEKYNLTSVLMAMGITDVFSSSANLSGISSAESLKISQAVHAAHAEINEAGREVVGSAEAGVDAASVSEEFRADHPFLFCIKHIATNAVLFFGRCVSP

In the case of “tissue type plasminogen activator (tPA) (from UniProt P00750 36-562) (enzyme)”, the Bmax in assay [1] came to 0.36; in assay [2], 0.37; in assay [3] it was 0.32; in [4] it was 0.07. The Kd in [1] came out at 102 nM; in [2], 342 nM; in assay [3], 96 nM; in assay [4], 19 nM.

Take “fourth and fifth finger domain of fibronectin (Fn F4-5) (from UniProt P02751 183-274)”: the Normalized affinity, kD (%) was determined as 103% in [5]; 100% in [6]; 100% in assay [7]; 0% in assay [8]; 6% in assay [9]; 69% in assay [10]. This substance had a Normalized affinity, kD (%) in assay [11] of 88%.
